In general, Kd refers to the equilibrium constant for the complex coming apart. The low end stands for a tighter complex, the high end for a looser complex.

Numbering of substitutions follows the chain as printed.

This note sets out measurements from patent US20220372130A1 (MITSUBISHI TANABE PHARMA, published 2022).

T1: human IL-33 protein (residue 112 to residue 270) (ATGen, ILC070) (human, UniProt O95760 112-270)
T1 construct: Bought protein (ATGen, ILC070); also called IL-33 (residue 112 to residue 270)
T1 sequence: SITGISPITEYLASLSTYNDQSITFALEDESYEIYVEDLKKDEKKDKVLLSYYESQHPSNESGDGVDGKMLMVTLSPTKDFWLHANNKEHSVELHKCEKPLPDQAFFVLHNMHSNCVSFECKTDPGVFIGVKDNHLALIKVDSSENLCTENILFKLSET

B1: A10-1C04 (antibody, human IgG1, lambda, V domains shown)
VH: EVQLLESGGGLVQPGGSLRLSCAASGFTFSDYYMNWVRQAPGKGLEWVSSISRYSSYIYYADSVKGRFTISRDNSKNTLYLQMNSLRAEDTAVYYCARDIGGMDVWGQGTLVTVSS
VL: QSVLTQPPSASGTPGQRVTISCTGSSSNIGAVYDVHWYQQLPGTAPKLLIYRNNQRPSGVPDRFSGSKSGTSASLAISGLRSEDEADYYCQTYDSSRWVFGGGTKLTVLG
notes: Prepared with recombinant CHO cells; constant region said to be preferably human IgG1; also called human IL-33 antibody; human anti-IL-33 monoclonal antibody
B2: A25-2C02 (antibody, human IgG1, lambda, V domains shown)
VH: EVQLLESGGGLVQPGGSLRLSCAASGFTFSNYYMHWVRQAPGKGLEWVSSISARSSYIYYADSVKGRFTISRDNSKNTLYLQMNSLRAEDTAVYYCARLATRNNAFDIWGQGTLVTVSS
VL: QSVLTQPPSASGTPGQRVTISCSGSSSNIGRNAVNWYQQLPGTAPKLLIYASNMRVSGVPDRFSGSKSGTSASLAISGLRSEDEADYYCWAWDDSQKVGVFGGGTKLTVLG
notes: Prepared with recombinant CHO cells; constant region said to be preferably human IgG1; also called A25-2CO2; human IL-33 antibody
B3: A23-1A05 (antibody, human IgG1, lambda, V domains shown)
VH: B2 VH with S56R, I58H, N103H
VL: B2 VL with R31N, N35S, S57I, W90G, V98A, G99L
notes: as for B1
B4: A25-3H04 (antibody, human IgG1, lambda, V domains shown)
VH: B2 VH with N31R, R54Q, Y57H, K65E, N103Q
VL: B2 VL with V56R, W90S, G99V
notes: as for B1
B5: A26-1F02 (antibody, human IgG1, lambda, V domains shown)
VH: B2 VH with I58L, N103H, N104V
VL: B2 VL with R31N, V56R, S57P, W90E, V98A, G99V
notes: as for B1

In the experiment the target is T1, human IL-33 protein (residue 112 to …). The experiment can be described thus: KinExA. On the procedure:
Five types of human IL-33 antibodies (A10-1C04, A23-1A05, A25-2CO2, A25-3H04 and A26-1F02) along with mouse sST2-Fc, which is a fusion protein of mouse ST2 and human IgG1 constant region, were prepared with recombinant CHO cells (WO 2015/099175).
A general note: Kinetic exclusion samples the free partner from a solution-phase mixture.
In turn, B1 returned a Kd of 100 pM.

Take B2: the dissociation constant (Kd) is 0.7 pM.

In the case of B3, binding was characterised by a dissociation constant (Kd) of 195 pM.

B4 gave a Kd of 7.7 pM.

The molecule B5 had a Kd of 5.3 pM.
